21 sequences from the DeepSol protein solubility set can be followed below.

The data set in a line: soluble on expression in E. coli; label from the status in PepcDB or PDB records.
In the case of “MLKSAFILASAPLFFTLAACSGESGTQVNTASAPATQVSRNIGSTVKNRGKLICGVSGELPGFSFVGTDAKYSGIDVDVCRAVTAALFDNPDAVEFRNLNTKERFTALQTGEIDLLSRNTTWTMSRETSVGLQFAPVIFYDGQAIMVSKNSGIKSLADLKNKAICTQTGTTTEQNLADQMRKRSITYKPVVFEDVNITFATYAEGRCDGVTTDRSALISRRTTLPKPEDNIILDELLSSEPLAPAVAKGDPQWNDIVKWVVYSLVKAEELGINSQNIAQLTNSNDPDIKRFLGTEGNLGEGLGLTNDFAARIVKHVGNYGEVYDRNLGGKTKLNLPRGQNQLAIKGGLLYSPPFR”, the “soluble on expression in E. coli” value is “not soluble”.
Take “MGSDKIHHHHHHMASFIASDQDVKNFLTAPSMNDQEGIGFAYATDEAVLKALIPAPLKLMAPVVCGYVVHMGKPTFSAPYLEESLFALVSYKDKMMGAYPINLLLHGPGAESGVIAGREGAGIPKKLADDIELRRNDNSATATVERHGKTLLNVSWTAGELNDPSIMKQFAGQLALGKEAEMNSFFYKYDIDQHEDGTNHFSNVQLVATQLRSLADQVEPGNLSIQLESTDDDPFGELKVLKPLGAAWFHFDTSVMFNTLKLDEVDAATTMPKLLTGRYDRSFFNPKAATYII”: the “soluble on expression in E. coli” value is “not soluble”.
“SWKFSRYVRTQMQELEPWQLKQALKTHQGVLQATYEGLVAINSEGSLYLINDSARAMLNYHQELGNVFTDGIDNPESFSLKGDDYINGLIRVNGKNLVMNRVTLRTSTGEPYGAVFSLRDQNEMHVLSEKISQVTQYMENMRVARHEYQNKLSTISGLLQMGAYDKALSVCLSQAKASQSQLDSLHALNSRPALSALILAKASKANELGVALSIDCQSDLSALSRRLSEEQLCGLIGNLAQNALEAVKGQENGHVHIGISESACEYTIQVSNNGPLLESEFDVLCELGFTTKQNKADHGVGMYLVRSIVEQGNGHMELDSDEQETAFTIYFPKELG”: the “soluble on expression in E. coli” value is listed as “not soluble”.
For the sequence “MTKKYSRFLPSEKSFNIDNFPYYWVTQVHSQYVHNIDNVLKRYGLDNSRRRILLALNIKQNASVSELSEMIISKMSTTTKIVYRLKDEGFVNTYSCENDARITRVNLTEQGKEMIHKINSLTGAVLEQSFEGLTPLQIEKMIDGLKIIFKNLSS”, the “soluble on expression in E. coli” value is “not soluble”.
“MKLVGSYTSPFVRKLSILLLEKGITFEFINELPYNADNGVAQFNPLGKVPVLVTEEGECWFDSPIIAEYIELMNVAPAMLPRDPLESLRVRKIEALADGIMDAGLVSVREQARPAAQQSEDELLRQREKINRSLDVLEGYLVDGTLKTDTVNLATIAIACAVGYLNFRRVAPGWCVDRPHLVKLVENLFSRESFARTEPPKA”: the “soluble on expression in E. coli” value was “soluble”.
The entry for “MKPARLSQTVVAPGCWGELPWGNYYREALEQQLNPWFAKMYGFHLLKIGNLSAEINSEACAVSHQVNVSSQGSPMQVLADPLHLPFADKSVDVCLLAHTLPWCTDPHRLLREADRVLIDDGWLVISGFNPLSLMGLRKLVPVLRKTPPYNSRMFTLMRQLDWLSLLNFEVLHYSRFHVLPWKKQGGRLLNTHIPALGCLQLIVARKRTIPLTLNPLRHNKSKTPIRQTVGATRQYRKPDG” is “not soluble”; for “LEGENSKQKVQMSIHQFTNICFKKCVESVNDSNLSSQEEQCLSNCVNRFLDTNIRIVNGLQNTR” it is “soluble”.
The entry for “MASFSILSIFKIGVGPSSSHTIGPMEAGARFCESLKGILEQVVRVQITLHGSLALTGKGHLSDEAVLIGLHGIYANELEVTTKKALLHEALENKVLKLANQHHIPFDYAKDLIFDNKPLTRHQNALILKAFNSKNEVLKEETYYSVGGGFVYTEKELDNLSEEDGNESIAYDFSSAKELLELCQKHQKSIAEIVRLRENALKNHPDATMVKIYHAMLECYDNGANSKERYLPGSLKVTRLAPSIKTRLEKHPTSGKDPLALIDYISLYARAIAEENASGGKVVTAPTNGACAVVPSVLLYAKNHLFENLSQKAINDFLLTSAAIGYLYKKNASLSGAEAGCQAEIGVASSMAAGGLAHLCQATTQQVLIASEIAMEHHLGLTCDPVGGLVQIPCIERNVLGAIKAISASKLALEDEYKPKVSLDEVIATMYATGKDMNEKYKETSLGGLAKTLKC” is “not soluble”; for “MGSDKIHHHHHHAATVAEATSNPWDNYYIGKIDFKNLSPEAKGSAIYAAVIPDPEAYITKHARKVVETLYFTPEDSIPGIEEIHYTLKEYDGVSAKDGAPPSISIVYSTKWIEKSFANNDTAKVDYETRGVLYHELTHGFQLEPQGIGSYGTNKTFWAMIEGVADAVRYLNGGFTLEDRPKGGHYMDGYRTTGFFLAWLTQTKSPDFLRKFNRSTLEVIPWSFDGGVKYALGNDYDIDSLWKEYMATMGDEA” it is “not soluble”; for “MNPLSIVIITLNEENRIGRLLEDLTEQTFKNFEVIVVDSNSSDATCEVAQSFSASIPDLTVHKMDKQGVSLGRNTGASLAKHERLLFLDADVRLSPDFLTKALTQLNEKGLEVAGVYMGSKGLPVAHKLGYMTFNIGLFLTQFAFPTAVGACIFSTRRAHKDLLGFDENITLCEDCDYVKRASRTWRFRFLPMTFEFDPRRLEQDGFLRMGYTYLKANVRRFLFGEMRNNEMEYKFGHYSNQKLEHHHHHH” it is “soluble”.
As for “MNIMSESIPQFYKRIQRCDPQLGTTYSKENPYFNVLSRQCNFGTVQFSYRDFYKVTLIIGVGKLYYADKWILVNRPAMLFSNPLVPYAWESISEEQKGMFCIFNEQFVQSEEKNGSLANTPLFKVTGDKVFFLNDAQVAKVMDIYTQMQEENQSDYANKHDVLRCYLHLLIHTALKMQESNKYESHPNASQRITELFIELLDRQFPVDYPHSVLSLRTPADYANRLSIHVNHLNKVVKDTTGKTTSTMIAERIIKECTQYLLHSNFSISEIAYSLGFENMAYFSKFYRKHTGKSPSEIREQQLFDLCK”, the “soluble on expression in E. coli” value is given as “not soluble”.
Consider “MLQHYSVSWKKGLAALCLLAVAGLSGCDQQENAAAKVEYDGLSNSQPLRVDANNHTVTMLVQINGRFLTDDTRHGIVFKDGSNGHKSLFMGYATPKAFYEALKEAGGTPGENMTMDNKETTHVTGSKLDISVNWQGAAKAYSFDEVIVDSNGKKLDMRFGGNLTAAEEKKTGCLVCLDSCPVGIVSNATYTYGAVEKRGEVKFKGNASVLPADNTLATVTFKIAE”, for which the “soluble on expression in E. coli” value is “soluble”.
On to “MGSDKIHHHHHHMDIGDKGEMLSLLKALVNIDSGSYYKEGVDRVGRMLTNAFKQIGFKVAIFKQERYGDHLLFTHPHAFDPKILLVAHMDTVFPVGTAAARPFQLIGTRAYGPGVIDMKGSLVACLYAIKALVGAQSPAVKQVAVLMTSDEEIGAPSGREIIEKIGVGKKAVLVMEPARKDGSLVTARRGGGRYTLNVTGRAAHSGVEPEKGRSAIEELAHKIMKLHALSDYKSGISVNVGVIEGGTAVNTVADRAKAKVDIRISRLEQAEPLDRDIRRICGTPDVDGTTIELKGGITRPPMERNAQTVALFQLIQQVASTIGLELTETATGGSSDASFTSALGIPTIDGMGPVGGFPHSEKEYLRVDTMQERTLLLAKVIERLSE”, for which the “soluble on expression in E. coli” value is “not soluble”.
Consider “GPGSMPERMTAALAARLVASPLKYVLLDIDGVIWCGGHVIDRVPETLQYLRGQGKQIRFLSNNASFSREQLMQSLKAKGIEGVTVEECYNSAYTAALRLRQMLGKADVPGEEPLVHGNVFVIGEQGLHDELQQVLAPGFITYGVELHDAVRAGGYDTDALGSAWRVPCLPPPQKRLVVCNGKACRMVQAGTNSAEKISLSDLNAAAVVVGLDKHFNIVKLAYGSLVLQGPPKDLREESYTPPLFVATNEDPQLPVGRDGTMIPGAGSMVSALCTAVGKRPDAVCGKPHKDMANILFAAEGVTNPREECIMIGDRLTTDVAFGNAAGCQSMLVLSGAEGLADVEEAEKQGRTALVPKYVAESLACFLPL”, for which the “soluble on expression in E. coli” value is reported as “soluble”.
For “MGSDKIHHHHHHMNKTDIAQDTINAAVWTACDTFRGTVDPSVYKDYVLTMLFLKYVSDVWQDHYDDYKTKHGNKPGLIEELLKNERFVLPHRANFYTLYDQRHRPGNGERIDTALHAIEDANLGKLRDVFQDISFNANKLGEEQQKNDLLRHLLEDFAKPALNLRPSRIGQLDIIGNAYEYLIKNFASSSGKKAGEFYTPPEVSALMARLMDPQQGDEICDPTCGSGSLLLKCGRLIRERTGSGKYALYGQEAIGSTWALAKMNMFLHGEDNHRIEWGDTIRNPKLLAGNHLKHFDIVVANPPFSLEKWGHDSADTDPHDRFRRGLPPRTKGDYAFILHMIATMKPRTGRMAVVVPHGVLFRGAAEGRIRQKLIEENLLDVVIGLPEKLFYGTGIPAAVLVFRTKKKDKKVLFIDASRQYQDGKNQNLLRESDLQRILDTVQARQNVDKYAYLASPDEIAGHDYNLNIPRYVDTFEEEAEIDLMAVRREREQLKGELATLEMQMAAYLKELGYE”, the “soluble on expression in E. coli” value is “not soluble”.
Take “MGSSHHHHHHSSGLVPRGSHMNQDPTQQLEPFLKRFLASLDLLYTQPTSQPFPNVESYATQLGSNLKRSSAIIVNGQPIIPSPQEDCKLQFQKKWLQTPLSSHQLTSYDGHLIPGTGTFVVHFSAKVRFDQSGRNRLGESADLFQENNSIVSKTNQRPIWGSWFGVDVNLVVDENVMQDGEIINSMDYRFTYVPNDSIIKV”: the “soluble on expression in E. coli” value is “soluble”.
With “MLIGIDVGGTTTDAVLIRNGEVYSTAKVPTEPGDLLKSLLGALDEVSRGVPPEQFERVVFSTTVITNLIAEGKTERVALLLIPGPGVNPASYVFPDSFCIKGAMDYRGREIQPIDEEEVRGTVSRIRDQGFLRVAVVSKFGQRNPSHELRIEEIIREMH”, the “soluble on expression in E. coli” value is recorded as “not soluble”.
With “GPGSMENKDVATSWDYNSAEIGEFVPNSCTGTHFPNGIACAPWFQQQVTSQPHLCSSEFASSVESVGGPACRVGSEGSDYCFMNKSVCRNEEEGAEEVEGNEGESNLRWGMHIHPAALRAVQASSREVVQGLIRDKELLCSQFGTMQQNIPLAITWHDTTAPSPNQTLASTFTPLPHKKRSRDLVTLLSGISPDWEAAEEVGGASAAAHVGGLEIQRKRFRVDNPTIGSAAYEVSKAATAASPKPWIKARQKRVREEGDEDVNVNVEWGRGRDGNENSGR”, the “soluble on expression in E. coli” value is on record as “soluble”.
“MSAANPTRDDFASLLEESFTTGHSGEGQVVKGTITAIEKDMAIIDVGLKVEGRVPLKEFGVKGKDTTLKVGDTVEVYVERIENALGEAMLSREKARREESWVRLEEKFTKGERVEGVIFNQVKGGFTVDLDGAVAFLPRSQVDIRPIRDVSPLMHNPQPFEILKMDRRRGNIVVSRRTVLEESRAEQRSEIVQNLEEGQVVEGVVKNITDYGAFVDLGGIDGLLHVTDMAWRRVNHPTEILNIGQTVKVQIIRINQETHRISLGMKQLESDPWSEIGTKFPIGKKIKGTVTNITDYGAFVELEPGIEGLIHVSEMSWTKKNVHPGKILSTTQEVDVVVLEVDPAKRRISLGLKQTLENPWEAFARNHPVGSQVEGEVKNKTEFGLFIGLEGDVDGMVHLSDLDWTRPGEQVIEEYNRGDMVKAQVLDVDIEKERISLGIKQLARDTVGEAATSGELRKNAVVTCEVIGVKDGGLEVRLVDSGIETFIKRSDLSRDRDEQRPERFTVGQKVDARVIAFDKKTRKLQVSIKALEIAEEKEAVAQYGSTDSGASLGDILGAALKKQGNLEHHHHHH”: the “soluble on expression in E. coli” value is “soluble”.
As to “AIARPSSLRQYLDSVPLPPCQEQQPKASAELDHKACYLCHSLLMLAGVVVSCQDITPDQWGELQLLCMQLDRHISTQIRESPQAMHRTMLKDLATQTYIRWQELLTHCQPQAQYFSPWKDI”, the “soluble on expression in E. coli” value is given as “soluble”.
Regarding “YSSAYKEFIKKSMKYRTEEDTFTDANGLAGCRYWSPKNYEKIARMMAQPKYKPAFAYLFFFRSYVNDQQITSCVFQVQRDGMPESILVQPVLRDESSVTLE”, the “soluble on expression in E. coli” value is given as “not soluble”.
